The values that follow come from publication PMC4863159.

The target of experiment [1] is C-CRD-RHCC-C-CRD fusion protein (not stated | Staphylothermus marinus). The experiment in a line: cross-linking; disulfide-linked oligomers of purified, oxidized CRD-RHCC fusion proteins in non-reducing SDS-PAGE; samples heat-denatured; control: reduced and treated with 60 mM iodoacetamide (IAA).
For experiment [2] the target is unchanged. The experiment in a line: cross-linking; spontaneous disulfide cross-linking of CRD-RHCC fusion proteins over time; loss of the dimer band into polymers on anti-His Western blot, samples every 30 minutes for 4 hours, single exponential decay fit (y = e^-x/tau).
Experiment [3] concerns the target C9A/C18A C-CRD mutant (CRD-RHCC fusion protein). The experiment in a line: western blot densitometry of the dimer band over time (spontaneous disulfide cross-linking). As to conditions: no reducing agent added, read off a plot. (In general: A western blot detects proteins with antibodies after separation by electrophoresis.)
Experiment [4] has as its target N-CRD-RHCC-N-CRD fusion protein (not stated | Staphylothermus marinus). As to the kind of experiment: cross-linking; disulfide-linked oligomers of purified, oxidized CRD-RHCC fusion proteins in non-reducing SDS-PAGE; samples heat-denatured; control: reduced and treated with 60 mM iodoacetamide (IAA).
The target is the same in experiment [5]. The experiment in a line: cross-linking; spontaneous disulfide cross-linking of CRD-RHCC fusion proteins over time; loss of the dimer band into polymers on anti-His Western blot, samples every 30 minutes for 4 hours, single exponential decay fit (y = e^-x/tau).
Experiment [6] addresses right-handed coiled-coil domain (RHCC) from Staphylothermus marinus, lacking CRDs (Staphylothermus marinus). The experiment in a line: SDS-PAGE at low SDS concentration; purified RHCC on SDS-PAGE with a low SDS concentration to preserve the tetrameric coiled-coil; monomer lane beside it.

“And” between values parts separate entries of the source, which are not always exact repeats. Identical values can stand only once.

Usually stoichiometry N stands for a count of units in the complex or per binding partner. Regarding C-CRD-RHCC-C-CRD fusion protein, the stoichiometry N in experiment [1] was 3 and 2. The substance also had a τ (decay of the dimer band into polymers) in experiment [2] of 88 min.

As for “C-CRD-RHCC-C-CRD fusion protein C9A; C18A”, the other: dimer loss (normalized) amounted to 1 in experiment [3] (t = 30 min, parent: est. 0.82); 0.91 in experiment [3] (t = 60 min, parent: est. 0.38); 0.92 in experiment [3] (t = 90 min, parent: est. 0.29); 0.98 in experiment [3] (t = 120 min, parent: est. 0.23); 1 in experiment [3] (t = 180 min, parent: est. 0.23); 1 in experiment [3] (t = 240 min, parent: est. 0.22).

In turn, N-CRD-RHCC-N-CRD fusion protein returned a stoichiometry N in experiment [4] of 2. The τ (decay of the dimer band into polymers) in experiment [2] was 251 min; in experiment [5] it was 340 min.

In turn, “right-handed coiled-coil domain (RHCC) from Staphylothermus marinus, lacking CRDs (domain or fragment)” had a stoichiometry N in experiment [6] of 4.
